Read-outs that look alike come from different tables or passages of the source.
How the values were obtained:
Hfq wt [1] = target: T1, Hfq wt (Escherichia coli, UniProt P0A6X3 1-102); experiment: filter binding
Hfq wt [2] = target: T1, Hfq wt; experiment: competition
Hfq wt [3] = target: T1, Hfq wt; experiment: competition; remark: listed apart in the source
Hfq Y25D (distal face) [4] = target: T2, Hfq Y25D (distal face) (Escherichia coli, UniProt P0A6X3 1-102, Y25D); experiment: filter binding
Hfq R16A (rim) [5] = target: T3, Hfq R16A (rim) (Escherichia coli, UniProt P0A6X3 1-102, R16A); experiment: filter binding
Hfq wt [6] = target: T1, Hfq wt; experiment: filter binding; remark: listed apart in the source
Hfq Y25D (distal face) [7] = target: T2, Hfq Y25D (distal face); experiment: filter binding; remark: listed apart in the source
Hfq K56A (proximal face) = Hfq K56A (proximal face) (Escherichia coli, UniProt P0A6X3 1-102, K56A); experiment: filter binding
Hfq R16A (rim) [8] = target: T3, Hfq R16A (rim); experiment: filter binding; remark: listed apart in the source
Hfq R16A (rim) [9] = target: T3, Hfq R16A (rim); experiment: filter binding; remark: listed apart in the source
Hfq wt [10] = target: T1, Hfq wt; experiment: filter binding; remark: listed apart in the source
Hfq Y25D (distal face) [11] = target: T2, Hfq Y25D (distal face); experiment: filter binding; remark: listed apart in the source
Hfq Y25D (distal face) [12] = target: T2, Hfq Y25D (distal face); experiment: EMSA
Hfq wt [13] = target: T1, Hfq wt; experiment: filter binding; remark: listed apart in the source
Hfq Y25D (distal face) [14] = target: T2, Hfq Y25D (distal face); experiment: filter binding; remark: listed apart in the source
Hfq R16A (rim) [15] = target: T3, Hfq R16A (rim); experiment: filter binding; remark: listed apart in the source
Hfq wt [16] = target: T1, Hfq wt; experiment: filter binding; remark: listed apart in the source
Hfq Y25D (distal face) [17] = target: T2, Hfq Y25D (distal face); experiment: filter binding; remark: listed apart in the source
Hfq R16A (rim) [18] = target: T3, Hfq R16A (rim); experiment: filter binding; remark: listed apart in the source
Hfq wt [19] = target: T1, Hfq wt; experiment: filter binding; remark: listed apart in the source

B1: 3'ETSleuZ (structured_RNA)
RNA: GGCCCGGAUGGUGGAAUCGGUAGACACAAGGGAUUUAAAAUCCCUCGGCGUUCGCGCUGUGCGGGUUCAAGUCCCGCUCCGGGUACCAUGGGAAAGAUAAGAAUAAAAUCAAAGCAAUAAGCAGUGUCGUGAAACCACCUUCGGGUGGUUUUUUU
What does the source list for B1?
Kd (Hfq wt [1]): 0.22 ± 0.008 nM; IC50 (Hfq wt [2]): 2.8 ± 0.35 nM; IC50 (Hfq wt [3]): 39 ± 7.3 nM; Kd (Hfq Y25D (distal face) [4]): 0.34 ± 0.18 nM; binding result (Hfq R16A (rim) [5]): binds

B2: AgvB (structured_RNA)
RNA: GGCGAUAACACAACAAUAUCAGUAUCUCAUGCUAUUGCCCGAACCCAUUCGGGCAUUUUU
Which Kd (Hfq wt [6]) does the source give for B2 here?
The Kd was 0.38 ± 0.06 nM.

What about the IC50 (Hfq wt [2]) of the same binder?
Its IC50 is 3.2 ± 1.4 nM.

And the IC50 (Hfq wt [3])?
The IC50 was 9.9 ± 2.7 nM.

And the Kd (Hfq Y25D (distal face) [7])?
Its Kd is 0.13 ± 0.003 nM.

And the Kd (Hfq K56A (proximal face))?
Its Kd is 27.2 ± 2.4 nM.

And the Kd (Hfq R16A (rim) [8])?
The Kd was 2.7 ± 0.12 nM.

B3: GcvB (structured_RNA)
RNA: GACUUCCUGAGCCGGAACGAAAAGUUUUAUCGGAAUGCGUGUUCUGGUGAACUUUUGGCUUACGGUUGUGAUGUUGUGUUGUUGUGUUUGCAAUUGGUCUGCGAUUCAGACCAUGGUAGCAAAGCUACCUUUUUUCACUUCCUGUACAUUUACCCUGUCUGUCCAUAGUGAUUAAUGUAGCACCGCCUAAUUGCGGUGCUUUUUUU
B3 was tested. Which binding signal (Hfq R16A (rim) [9]) did it give?
The binding signal was 30 fold weaker than wt Hfq.

And the IC50 (Hfq wt [3])?
Its IC50 is 23 ± 5.2 nM.

What about the Kd (Hfq wt [10]) of the same binder?
Its Kd is less than 1 nM.

And the Kd (Hfq Y25D (distal face) [11])?
Its Kd is less than 1 nM.

B4: RybB (structured_RNA)
RNA: GGCCACUGCUUUUCUUUGAUGUCCCCAUUUUGUGGAGCCCAUCAACCCCGCCAUUUCGGUUCAAGGUUGAUGGGUUUUUU
Does B4 bind (Hfq Y25D (distal face) [12])?
Result: binds

B5: AgvB-U0 (structured_RNA)
RNA: GGCGAUAACACAACAAUAUCAGUAUCUCAUGCUAUUGCCCGAACCCAUUCGGGCA
Which Kd (Hfq wt [13]) does the source give for B5 here?
Its Kd is 1.75 ± 0.6 nM.

And the Kd (Hfq Y25D (distal face) [14])?
The Kd was 21 ± 8 nM.

What about the Kd (Hfq R16A (rim) [15]) of the same binder?
Its Kd is 3.9 ± 0.76 nM.

B6: AgvB-U9 (structured_RNA)
RNA: GGCGAUAACACAACAAUAUCAGUAUCUCAUGCUAUUGCCCGAACCCAUUCGGGCAUUUUUUUUU
For B6, which Kd (Hfq wt [16]) is on record?
Its Kd is 0.18 ± 0.02 nM.

What about the Kd (Hfq Y25D (distal face) [17]) of the same binder?
The Kd was 0.12 ± 0.016 nM.

And the Kd (Hfq R16A (rim) [18])?
The Kd was 0.19 ± 0.02 nM.

B7: 3'ETSleuZ-U4 (structured_RNA)
RNA: GGCCCGGAUGGUGGAAUCGGUAGACACAAGGGAUUUAAAAUCCCUCGGCGUUCGCGCUGUGCGGGUUCAAGUCCCGCUCCGGGUACCAUGGGAAAGAUAAGAAUAAAAUCAAAGCAAUAAGCAGUGUCGUGAAACCACCUUCGGGUGGUUUU
Does B7 bind (Hfq wt [19])?
Result: binds
